Patent US4711951A, “Therapeutically active compound and pharmaceutical composition containing the same” (priority 1981, dated 1987)

Legend:
[1] = system: white mice (male mice of type NMRI); experiment: Blood sugar level in mice after intravenous injection (anthrone method); type: in vivo; details: i.v.; for blood sugar level reduced to % of the normal value: in 30 minutes
Experimental: Test animals were white mice (male mice of type NMRI) having a body weight of 25±2 g. The solutions below were administrated intravenously in the tails of the mice. There were three groups of mice, in which there were three mice each. The solutions contained:
Group A: 0.5 ml 0.9% (w/v) NaCl
Group B: 0.5 ml 0.9% (w/v) NaCl and 5 ug native insulin
Group C: 0.5 ml 0.9% (w/v) NaCl 50 ug insulin-2-pyridyl disulfide derivative synthesized as above.
Blood samples were collected in micro capillary tubes from the corners of the eyes of the mice. The samples were collected 10 minutes before injection and 30, 120, 240 minutes, 7, 15 and 24 hours on injection. The anthrone method was used to determine the carbohydrate content of the samples (Burt J R; Anal Biochem, 9 (1964) p 293-302).

[2] = Determination of half-life for circulation in rabbit (superoxide dismutase activity of blood samples); type: in vivo; details: i.v., 1 ml of 10 mg/ml
Experimental: Test animals were white rabbits having a body weight of 2-5 kg. 1 ml native superoxide dismutase (yeast superoxide dismutase, Carlsberg Laboratories, Copenhagen, Denmark) (10 mg/ml) or 1 ml superoxide dismutase-2-pyridyl disulfide derivative (10 mg/ml) was injected intravenously into the rabbits. Both of the solutions were prepared from 0.9% (w/v) NaCl. Blood samples were collected from the ear lobes of the rabbits at the time intervals 5, 10, 20, 30, 60, 90, 120, 150, 180 and 210 minutes. The superoxide dismutase activity of the samples was determined according to Crapo J D, McCord J M and Fridovich I; Methods of Enzymology 53 (1978) p 382-393.

[3] = Half-life of circulating catalase activity in burnt rats (Clark electrode); type: in vivo, rats (Sprague Dawley); details: i.v., 20,000 IU, hind paws burnt 5 minutes after injection, catalase activity in blood
Experimental: (§1) Test animals were white rats (Sprague Dawley) of a body weight of 300-350 g. Two groups of rats (6 individuals each) were separately injected intravenously with 0.5 ml 0.9% (w/v) NaCl containing 20,000 international units (IU) native catalase respectively an amount of catalase-2-dipyridyl disulfide derivative (synthesized as above) corresponding to 20,000 (IU) native catalase. 5 minutes after injection hind paws of all the rats were burnt by dipping into circulating water of +55° C. for 20 seconds. 0.4 ml blood was collected from the left arteriae carotis at the time intervals 2, 15, 30, 60, 120 and 180 minutes. The catalase activity in each blood sample was determined as the amount of oxygen formed per time unit. Measurements were carried out with a Clark electrode by standard procedures.

[4] = system: white rats (Sprague Dawley), burnt hind paws; experiment: Oedema of the burn, measured as the volume of the paw; type: in vivo; details: i.v., amount corresponding to 20,000 IU, in 2 hours
Experimental: as §1
The oedema of the burn was measured as the volume of the paw. This volume was measured as corresponding deplacement at even time cuts during 3 hours.

Molecule: native insulin: native insulin, underivatized base compound used as comparison
- time until blood sugar level reached the normal value (value before injection) ([1]; 5 ug native insulin (group B)): 7 h
- blood sugar level reduced to % of the normal value ([1]; 5 ug native insulin (group B)): 40 % of the normal value

Molecule: insulin-2-pyridyl disulfide derivative: insulin reacted with N-succinimidyl-3-(2-pyridyldithio)-propionate (SPDP)
- time until blood sugar level returned to normal values ([1]; 50 ug derivative (group C)): > 24 h
- blood sugar level reduced to % of the normal value ([1]; 50 ug derivative (group C)): 40 % of the normal value

B1: native superoxide dismutase: yeast superoxide dismutase, Carlsberg Laboratories, Copenhagen, Denmark (protein, UniProt P00445 2-154, looked up)
Superoxide dismutase [Cu-Zn]: VQAVAVLKGDAGVSGVVKFEQASESEPTTVSYEIAGNSPNAERGFHIHEFGDATNGCVSAGPHFNPFKKTHGAPTDEVRHVGDMGNVKTDENGVAKGSFKDSLIKLIGPTSVVGRSVVIHAGQDDLGKGDTEESLKTGNAGPRPACGVIGLTN
- half-life for circulation [2]: about 10 minutes

B2: superoxide dismutase-2-pyridyl disulfide derivative: superoxide dismutase from yeast reacted with SPDP (protein, UniProt P00445 2-154, looked up)
Superoxide dismutase [Cu-Zn]: VQAVAVLKGDAGVSGVVKFEQASESEPTTVSYEIAGNSPNAERGFHIHEFGDATNGCVSAGPHFNPFKKTHGAPTDEVRHVGDMGNVKTDENGVAKGSFKDSLIKLIGPTSVVGRSVVIHAGQDDLGKGDTEESLKTGNAGPRPACGVIGLTN
modifications: SPDP 2-pyridyl disulfide derivative
notes: superoxide dismutase from yeast reacted with SPDP
- half-life for circulation [2]: 60 min

B3: native catalase: catalase of bovine liver (Sigma C-100), further purified by gel filtration (protein, UniProt P00432 2-527, looked up)
Catalase: ADNRDPASDQMKHWKEQRAAQKPDVLTTGGGNPVGDKLNSLTVGPRGPLLVQDVVFTDEMAHFDRERIPERVVHAKGAGAFGYFEVTHDITRYSKAKVFEHIGKRTPIAVRFSTVAGESGSADTVRDPRGFAVKFYTEDGNWDLVGNNTPIFFIRDALLFPSFIHSQKRNPQTHLKDPDMVWDFWSLRPESLHQVSFLFSDRGIPDGHRHMNGYGSHTFKLVNANGEAVYCKFHYKTDQGIKNLSVEDAARLAHEDPDYGLRDLFNAIATGNYPSWTLYIQVMTFSEAEIFPFNPFDLTKVWPHGDYPLIPVGKLVLNRNPVNYFAEVEQLAFDPSNMPPGIEPSPDKMLQGRLFAYPDTHRHRLGPNYLQIPVNCPYRARVANYQRDGPMCMMDNQGGAPNYYPNSFSAPEHQPSALEHRTHFSGDVQRFNSANDDNVTQVRTFYLKVLNEEQRKRLCENIAGHLKDAQLFIQKKAVKNFSDVHPEYGSRIQALLDKYNEEKPKNAVHTYVQHGSHLSAREKANL
- half-life for circulating catalase [3]: 9 min

B4: catalase-2-pyridyl disulfide: purified catalase of bovine liver reacted with SPDP (protein, UniProt P00432 2-527, looked up)
Catalase: ADNRDPASDQMKHWKEQRAAQKPDVLTTGGGNPVGDKLNSLTVGPRGPLLVQDVVFTDEMAHFDRERIPERVVHAKGAGAFGYFEVTHDITRYSKAKVFEHIGKRTPIAVRFSTVAGESGSADTVRDPRGFAVKFYTEDGNWDLVGNNTPIFFIRDALLFPSFIHSQKRNPQTHLKDPDMVWDFWSLRPESLHQVSFLFSDRGIPDGHRHMNGYGSHTFKLVNANGEAVYCKFHYKTDQGIKNLSVEDAARLAHEDPDYGLRDLFNAIATGNYPSWTLYIQVMTFSEAEIFPFNPFDLTKVWPHGDYPLIPVGKLVLNRNPVNYFAEVEQLAFDPSNMPPGIEPSPDKMLQGRLFAYPDTHRHRLGPNYLQIPVNCPYRARVANYQRDGPMCMMDNQGGAPNYYPNSFSAPEHQPSALEHRTHFSGDVQRFNSANDDNVTQVRTFYLKVLNEEQRKRLCENIAGHLKDAQLFIQKKAVKNFSDVHPEYGSRIQALLDKYNEEKPKNAVHTYVQHGSHLSAREKANL
modifications: SPDP 2-pyridyl disulfide derivative
notes: purified catalase of bovine liver reacted with SPDP
- half-life for circulating catalase [3]: 34 min
- swelling of the burnt paws compared to native catalase [4]: significantly decreased swelling
